Reference: patent publication US12006368 (SURROZEN OPERATING, dated 2024)

Tests used:
[1] = biological target: Fzd2 cysteine rich domain (CRD), C-terminally biotinylated (human, UniProt Q14332 24-155); experiment: BLI
Description: (§1) Binding kinetics of antibody fragments to a variety of Fzd cysteine rich domain (CRD) protein targets (Fzd1, Fzd2, Fzd3, Fzd4, Fzd5, Fzd6, Fzd7, Fzd8, Fzd9 and/or Fzd10 CRDs) was determined by bio-layer interferometry (BLI) using Octet Red 96 (PALL ForteBio, Fremont, CA) instruments at 30° C., 1000 rpm with streptavidin (SA) biosensors. C-terminal biotinylated Fzd CRD recombinant protein was diluted to 20 nM in the running buffer (PBS, 0.05% Tween-20, 0.5% BSA, pH 7.2) and captured to the SA biosensor until coupling length reached 0.2 nm. Following capture of the Fzd CRD, the SA biosensor with captured biotinylated-Fzd CRD was dipped into wells containing the relevant antibody fragment at […] (0, 1.37, 4.12, 12.4, 37, 111.1, 333.3, 1000 nM) in running buffer, plus a well with only running buffer as a reference channel. […] was determined by global fitting, 1:1 binding model according to manufacturer recommended settings.
(§2) Table 1B provides clone IDs, the sequence identifier number of the antibody heavy chain fragment and/or light chain fragment, if present, for illustrative clones. In certain embodiments, the Fzd binding domain is an Fab or was derived from an Fab, so the heavy chain of Table 1B includes VH and CH1 sequence, but not CH2 or CH3 sequences. In certain embodiments, the Fzd binding domain is a VHH or sdAb® or was derived from a VHH or sdAb, so Table 1B includes the VHH domain. […] The Kd values were determined by BLI as described above. Blank entries denote that the binding to the specific Fzd receptor has not yet been determined. The entry of "n.b." indicates no binding.

[2] = biological target: Fzd1 cysteine rich domain (CRD), C-terminally biotinylated (human, UniProt Q9UP38 101-230); experiment: BLI
Description: as §1, §2

| Binder | binding result [1] | binding result [2] |
| --- | --- | --- |
| 005S-D08 (Fab, V domains shown) VH: EVQLVESGGGLVQPGGSLRLSCAASGFAFSSHWMHWVRQAPGKGLEWVSAIDGSGGSTYYADSVKGRFTISRDNSKNTLYLQMNSLRAEDTAVYYCARDRQLGWAHWYFDLWGRGTLVTVSS VL: not shown | no binding (tested: 1000 nM) | no binding (tested: 1000 nM) |
| 005S-E09 (Fab, V domains shown) VH: EVQLVQSGGGLVQPGGSLRLSCAASGFNLRRYNMNWVRQAPGKGLEWVSRISNSGSLVYYADSVKGRFTISRDNSKNTLYLQMNSLRAEDTAVYYCARDADSSGYYRYDAFDIWGQGTMVTVSS VL: EIVLTQSPATLSVSPGERATLSCRASQSVSSNLAWYQQKPGQAPRLLIYDASNRATGIPARFSGSGSGTEFTLTISSLQSEDFAVYYCQQRNNWLYTFGQGTKVEIKR | no binding (tested: 1000 nM) | no binding (tested: 1000 nM) |
| 005S-H10 (Fab, V domains shown) VH: QVQLVQSGAEVKKPGSSVKVSCKASGGAFSTSSISWVRQAPGQGLEWVGRIIPVLGTANYAQKFQGRVTITADESTSTAYMELSSLRSEDTAVYYCAKGGWRSSFDPWGQGTLVTVSS VL: not shown | no binding (tested: 1000 nM) | no binding (tested: 1000 nM) |
| 005S-B11 (Fab, V domains shown) VH: QVQLVQSGAEVKKPGASVKVSCKASGYTFTSYDINWVRQAPGQGLEWMGGFDPEDGETIYAQKFQGRVTMTRDTSTSTVYMELSSLRSEDTAVYYCAKAGDWGLYGMDVWGQGTMVTVSS VL: DIQMTQSPSSLSASVGDRVTITCRASQSISRWLAWYQQKPGKAPKLLIYAASSLQSGVPSRFSGSGSGTDFTLTISSLQPEDFATYYCQQTNTFPFTFGPGTKVDIKR | no binding (tested: 1000 nM) | no binding (tested: 1000 nM) |
| 005S-D11 (Fab, V domains shown) VH: QVQLVQSGAEVKKPGASVKVSCKASGYTFTNNFMHWVRQAPGQGLEWMGWINPNSGDTKFAPKFQGRVTMTRDTSTSTVYMELSSLRSEDTAVYYCAREANYDILTGYIRPDAFDIWGQGTTVTVSS VL: EIVLTQSPATLSVSPGERATLSCRASQSLRSKLAWYQQKPGQAPRLLIYGASTRATGIPARFSGSGSGTEFTLTISSLQSEDFAVYYCQQYANSPWTFGPGTKVDIKR | no binding (tested: 1000 nM) | no binding (tested: 1000 nM) |
| 014S-G02 (Fab, V domains shown) VH: QVQLVQSGAEVKKPGASVKVSCKASGYTFTSYYMNWVRQAPGQGLEWMGIISPSGGSTSYAQKFQGRVTMTRDTSTSTVYMELSSLRSEDTAVYYCARWGDYGDLYYFDYWGQGTLVTVSS VL: DIQMTQSPSSLSASVGDRVTITCRASQGISSALAWYQQKPGKAPKLLIYATSTLQSGVPSRFSGSGSGTDFTLTISSLQPEDFATYYCQQVNSYPPTFGQGTKLEIKR | no binding (tested: 1000 nM) | no binding (tested: 1000 nM) |
| 014S-B04 (Fab, V domains shown) VH: QVQLVQSGAEVKKPGASVKVSCKASGYIFTDYYMHWVRQAPGQGLEWMGWMNPNSGNTGYAQKFQGRVTMTRDTSTSTVYMELSSLRSEDTAVYYCARGGSRYDFWSGHWYFDLWGRGTLVTVSS VL: DIQMTQSPSSLSASVGDRVTITCRASQGISNYLAWYQQKPGKAPKLLIYAASSLQSGVPSRFSGSGSGTDFTLTISSLQPEDFATYYCQQSYSTPFTFGQGTKVEIKR | no binding (tested: 1000 nM) | no binding (tested: 1000 nM) |
| 014S-B06 (Fab, V domains shown) VH: EVQLVQSGGGLVKPGGSLRLSCAASGFTFSSYSMNWVRQAPGKGLEWVSYIENDGSITTYADSVKGRFTISRDDSKNTLYLQMNSLKTEDTAVYYCARAPYYYGSGSLFRLDYWGQGTLVTVSS VL: not shown | no binding (tested: 1000 nM) | no binding (tested: 1000 nM) |
| 014S-G06 (Fab, V domains shown) VH: EVQLVESGGGLVKPGGSLRLSCAASGFTFSSYAMHWVRQAPGKGLEWVSAIGAGGGTYYADSVKGRFTISRDDSKNTLYLQMNSLKTEDTAVYYCARDAYNWFDPWGQGTLVTVSS VL: not shown | no binding (tested: 1000 nM) | no binding (tested: 1000 nM) |
| 014S-A07 (Fab, V domains shown) VH: EVQLVESGGGLVKPGGSLRLSCAASGFTFSNAQMSWVRQAPGKGLEWVSAIGTGGGTYYADSVKGRFTISRDDSKNTLYLQMNSLKTEDTAVYYCAREGSYYDWYFDLWGRGTLVTVSS VL: EIVLTQSPATLSVSPGERATLSCRASQNIGSRLAWYQQKPGQAPRLLIYGASNRASGIPARFSGSGSGTEFTLTISSLQSEDFAVYYCQQYNHWPPLFTFGPGTKVDIKR | no binding (tested: 1000 nM) | no binding (tested: 1000 nM) |
| 017S-B09 (VHH) VHH: AVQQVESGGGLVQPGGSLRLSCAASGFTLDYYAISWFRQAPGKKRELVADITSGGSTNYADSVKGRFTISRDNAKNTIYLQMNSLKPEDTAVYFCNAVTYNGYTIWGQGTQVTVSS | no binding (tested: 1000 nM) | no binding (tested: 1000 nM) |
| 004S-F10 (Fab, V domains shown) VH: EVQLVESGGGLVQPGGSLRLSCAASGFTFSDHYMSWVRQAPGKGLEWVALVGYDGSQQFYGESVKGRFTISRDNSKNTLYLQMNSLRAEDTAVYYCNTGIPMLYWGQGTLVTVSS VL: not shown | no binding (tested: 1000 nM) | no binding (tested: 1000 nM) |
| 004S-A11 (Fab, V domains shown) VH: QVQLVQSGAEVKKPGSSVKVSCKASGGTFSSYAISWVRQAPGQGLEWMGRIIPILGIANYAQKFQGRVTITADESTSTAYMELSSLRSEDTAVYYCARESVNNYYYMDVWGKGTTVTVSS VL: not shown | no binding (tested: 1000 nM) | no binding (tested: 1000 nM) |
| 004S-A12 (Fab, V domains shown) VH: QVQLVQSGAEVKKPGASVKVSCKASGYTFTNNFMHWVRQAPGQGLEWMGRINPNSGGTNYAQKFQGRVTMTRDTSTSTVYMELSSLRSEDTAVYYCARGQGYSSGWYRGDAFDIWGQGTTVTVSS VL: not shown | no binding (tested: 1000 nM) | no binding (tested: 1000 nM) |
| 005S-A07 (Fab, V domains shown) VH: QVQLVQSGAEVKKPGSSVKVSCKASGFTFTGSAVQWVRQAPGQGLEWVGGILPIYGTTKYAQKFQGRVTITADESTSTAYMELSSLRSEDTAVYYCARGARLYGFDYWGQGTLVTVSS VL: EIVLTQSPATLSVSPGERATLSCRASQSVSRNLAWYQQKPGQAPRLLIYGASTRATGIPARFSGSGSGTEFTLTISSLQSEDFAVYYCQQRSNWPITFGQGTRLEIKR | no binding (tested: 1000 nM) | no binding (tested: 1000 nM) |
| 005S-B07 (Fab, V domains shown) VH: QVQLVQSGAEVKKPGASVKVSCKASGFTFTSSAVQWVRQAPGQGLEWMGWMNPNSGNTGYAQKFQGRVTMTRDTSTSTVYMELSSLRSEDTAVYYCARGRGQQWLTGYYGMDVWGQGTTVTVSS VL: DIQMTQSPSSLSASVGDRVTITCRASQGISSALAWYQQKPGKAPKLLIYGASTLQSGVPSRFSGSGSGTDFTLTISSLQPEDFATYYCLQDYNYPFTFGPGTKVDIKR | no binding (tested: 1000 nM) | no binding (tested: 1000 nM) |
| 005S-E12 (Fab, V domains shown) VH: QVQLVQSGAEVKKPGASVKVSCKASGYIFTDYYMHWVRQAPGQGLEWMGVIFPVYPTPDYAQKFQGRVTMTRDTSTSTVYMELSSLRSEDTAVYYCARGGSTGYYGMDVWGQGTTVTVSS VL: DIQMTQSPSSLSASVGDRVTITCRASQSVGRWMAWYQQKPGKAPKLLIYAASSLQSGVPSRFSGSGSGTDFTLTISSLQPEDFATYYCQQANTFPFTFGPGTKVDIKR | no binding (tested: 1000 nM) | no binding (tested: 1000 nM) |
| 003S-D10 (Fab, V domains shown) VH: EVQLVESGGGLVKPGGSLRLSCAASGFNFGIYSMTWVRQAPGKGLEWISYISGDSGYTNYADSVKGRFTISRDDSKNTLYLQMNSLKTEDTAVYYCARVGPGGWFDPWGQGTLVTVSS VL: DIQMTQSPSSLSASVGDRVTITCRASQGISSYLAWYQQKPGKAPKLLIYAASNLLGGVPSRFSGSGSGTDFTLTISSLQPEDFATYYCQQTYSTPWTFGQGTKVEIKR | no binding (tested: 1000 nM) | no binding (tested: 1000 nM) |
| 004S-B08 (Fab, V domains shown) VH: QVQLVQSGAEVKKPGASVKVSCKASGYTFTNNFMHWVRQAPGQGLEWMGRINPNSGGTNYAQKFQGRVTMTRDTSTSTVYMELSSLRSEDTAVYYCASQNYYGSGSYPGFDYWGQGTLVNVSS VL: not shown | no binding (tested: 1000 nM) | no binding (tested: 1000 nM) |
